Data taken from article PMC8899823 (Science translational medicine, 2022).

Tests used:
[1] = target: bat RsSHC014 spike protein (Bat SARS-like coronavirus RsSHC014, UniProt U5WLK5); experiment: ELISA
SARS-CoV-2 RBD = SARS-CoV-2 RBD (SARS-CoV-2, UniProt P0DTC2); experiment: ELISA

B1: DH1047 IgG (antibody, V domains shown)
VH: QVQLVQSGAEVKKPGASVQVSCQASANTFTNHYIHWVRQAPGQGLEWMGIIYPTGGNTIYAQGFQGRVTMTRDTSLNTIYLELSSLRSEDTAVYYCARDVRVDDSWSGYDLLSGGTYFDYWGQGTLVTVSS
VL: not shown
[1]
  binding result: binds
SARS-CoV-2 RBD
  binding result: binds
